From patent US20190359687A1 (Bayer, published 2019)
Numbering of substitutions follows the chain as printed. No end group written: not given here. *: point of attachment. Biotin = O=C1N[C@H]2[C@H](CS[C@H]2CCCCC(=O)*)N1

B1: TPP-7792 scFv (scFv)
scFv: DIQLTQSPSFLSASVGDRVTITCRASSSVRYIYWFQQKPGKAPKLLIYATSFRQSGVPSRFSGSGSGTEYTLTISSLQPEDFATYYCHQRNSFPYTFGQGTKLEIKEVQLVQSGAEVKKPGASVKVSCKASGYTFTTYAIHWVRQAPGQGLEWMGYINPSSGYTRYNPKFKGRVTMTRDKSTSTAYMELRSLRSDDTAVYYCWTGTRDYWGQGTTVTVSS
notes: as m101 (tag, order, linker)
B2: 13G7G1/C3 (antibody, V domains shown)
VH: RVQLQQSGAELARPGASVKMSCKASGYTFTNYAMHWVKQRPGQGLEWIGYINPKSDNTNYNQKFKDKATLTTDKSSATAYMQLSSLTSDDSAVYYCQTGTRDYWGQGTTLTVSS
VL: HIVLTQSPAIMSASPGEKVTIFCSASSSITYVYWFQQKPGTSPKLWIYSTSSLPSGVPARFSGSGSGTSYSLTISRMEAEDAATYYCHQRNSYPFTFGSGTKLEIK
notes: as m8; also called TPP-3423
B3: TPP-7790 Fab (Fab, V domains shown)
VH: EVQLVQSGAEVKKPGASVKVSCKASGYTFTTYAIHWVRQAPGQGLEWMGYINPSSGYTRYNPKFKHRVTMTRDKSTSTAYMELRSLRSDDTAVYYCWTGTRDYWGQGTTVTVSS
VL: DIQLTQSPSFLSASVGDRVTITCRASSSVRYIYWFQQKPGKAPKLLIYATSFLQSGVPSRFSGSGSGTEYTLTISSLQPEDFATYYCHQRNSFPYTFGQGTKLEIK
notes: Tested as Fab with a 6xHIS tag
B4: TPP-7792 Fab (Fab, V domains shown)
VH: B3 VH with H66G
VL: B3 VL with L53R
notes: as for B3

Legend:
[1] = biological target: T1, human glycophorin A in the red blood cell membrane (human, UniProt P02724 20-150); assay: FACS on RBC of huGPA/HemA transgenic mice (muTGRBC), 1E+6 RBC/mL, scFv titrated
T1 construct: whole, on cells; used for intact RBC, isolated RBC membranes and transfected cells; the assay field tells which; also called GPA; hGPA
T1 sequence (looked up): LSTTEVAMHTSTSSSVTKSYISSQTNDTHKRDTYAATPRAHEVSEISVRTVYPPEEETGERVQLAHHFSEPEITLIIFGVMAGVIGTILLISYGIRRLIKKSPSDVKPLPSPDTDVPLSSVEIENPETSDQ

[2] = biological target: T1, human glycophorin A in the red blood …; assay: FACS, hu RBC
[3] = biological target: T2, Cynomolgus monkey glycophorin A on Cynomolgus monkey red blood cells (Cynomolgus monkey); assay: FACS, Cyno RBC
T2 construct: whole, on cells; also called Cyno RBC; Cyno GPA
Procedure: (§1) Hybridomas were generated from the spleen cells of these mice and these hybriomas were screened first by fluorescence activated cell sorting (FACS) against isolated human and monkey (Cynomolgus monkey and Rhesus monkey) red blood cells (RBC) and then by ELISA against purified human glycophorin A protein (GPA). Isolated RBC were prepared from whole blood from normal human, cynomolgus monkey, and beagle dog, were anticoagulant with sodium heparin (Bioreclamation). 2-3 mL of whole blood was loaded gently on the top of 3 mL Ficoll Plus (Sigma Aldrich) then centrifuged at 500 g for 20 min at room temperature (RT). The RBC pellets were washed 3 times with 10 mL of PBS, and centrifuge 400 g for 10 min at RT. RBC pellets were re-suspended in PBS at the same total volume as the original blood volume to achieve the same RBC cell density as in whole blood and stored at 4° C. Purified human glycophorin A protein was obtained from Sigma Aldrich and coated on ELISA plates at 2 ug/ml. Binding of antibodies to human GPA was detected using appropriate secondary antibodies using methods well known in the art.

[4] = biological target: T3, recombinant human GPA ectodomain (human, UniProt P02724 20-91); assay: SPR, IgG
T3 construct: also called recombinant hGPA ECD; recGPA
T3 sequence: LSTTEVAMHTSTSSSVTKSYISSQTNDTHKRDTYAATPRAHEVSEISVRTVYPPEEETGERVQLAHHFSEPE

[5] = biological target: T4, purified human glycophorin A protein (Sigma, cat # G5017) (human, UniProt P02724 20-150); assay: ELISA, hGPA
T4 construct: mature; also called Sigma hGPA; Sigma GPA
T4 sequence (looked up): T1 sequence (looked up)
Procedure: as §1

[6] = biological target: T5, asialo hGPA (desialylated human GPA) (human, UniProt P02724 20-150, desialylated); assay: ELISA, purified IgG
T5 construct: mature; also called asialo-GPA
T5 sequence (looked up): T1 sequence (looked up)
Procedure: (§2) The “Sigma GPA” is a crude preparation of human GPA extracted from human red blood cells and is therefore representative of the highly glycosylated form of the native protein.
(§3) EC 50 values were determined from a dilution curve of the antibody. Sigma GPA is partially purified GPA extracted from human red blood cells and purchased from Sigma Chemical Company (cat # G5017), asialo hGPA is human GPA that was desialylated and ECD is the recombinantly expressed ectodomain which is the extracellular portion of GPA.

[7] = biological target: T3, recombinant human GPA ectodomain; assay: ELISA, purified IgG
Procedure: as §2, §3

[8] = biological target: T4, purified human glycophorin A protein …; assay: ELISA, purified IgG
Procedure: as §2, §3

[9] = biological target: T6, dog red blood cells (dog); assay: FACS, dog RBC
T6 construct: also called dog RBC
Procedure: as §1

[10] = biological target: T7, GP7 (human); assay: peptide ELISA, summary of Table 23
T7 peptide: Biotin-SVRTVYPP
Source text: (§4) These peptides were attached to the surface of a streptavidin coated plate via a biotin moiety that was present at the N-terminus of each peptide.

[11] = biological target: T8, GP13 (human); assay: peptide ELISA, summary of Table 23
T8 peptide: Biotin-PPEEETGE
Source text: as §4

[12] = biological target: T9, GP12 (human); assay: peptide ELISA, summary of Table 23
T9 peptide: Biotin-YPPEEETG
Source text: as §4

[13] = biological target: T10, GP10 (human); assay: peptide ELISA, summary of Table 23
T10 peptide: Biotin-TVYPPEEE
Source text: as §4

[14] = biological target: T11, GP11 (human); assay: peptide ELISA, summary of Table 23
T11 peptide: Biotin-VYPPEEET
Source text: as §4

[15] = biological target: T12, GP5-19 (human, biotin at the N-terminus); assay: ELISA, biotin-peptide on streptavidin plate, Fab 0.5 ug/ml
T12 construct: GP5 with alanine at position 19 (E19A), already in the entry
T12 peptide: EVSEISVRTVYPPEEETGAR

[16] = biological target: T13, GP5-15 (human, biotin at the N-terminus); assay: as above
T13 construct: GP5 with alanine at position 15 (E15A), already in the entry
T13 peptide: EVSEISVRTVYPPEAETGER

[17] = biological target: T14, GP5-4 (human, biotin at the N-terminus); assay: as above
T14 construct: GP5 with alanine at position 4 (E4A), already in the entry
T14 peptide: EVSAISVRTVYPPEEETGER

[18] = biological target: T15, GP5-6 (human, biotin at the N-terminus); assay: as above
T15 construct: GP5 with alanine at position 6 (S6A), already in the entry
T15 peptide: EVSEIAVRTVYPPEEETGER

[19] = biological target: T16, GP5-8 (human, biotin at the N-terminus); assay: as above
T16 construct: GP5 with alanine at position 8 (R8A), already in the entry
T16 peptide: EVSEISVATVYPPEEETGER

[20] = biological target: T17, GP5-17 (human, biotin at the N-terminus); assay: as above
T17 construct: GP5 with alanine at position 17 (T17A), already in the entry
T17 peptide: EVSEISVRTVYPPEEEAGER

[21] = biological target: T18, GP5-20 (human, biotin at the N-terminus); assay: as above
T18 construct: GP5 with alanine at position 20 (R20A), already in the entry
T18 peptide: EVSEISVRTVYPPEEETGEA

[22] = biological target: T19, GP5-2 (human, biotin at the N-terminus); assay: as above
T19 construct: GP5 with alanine at position 2 (V2A), already in the entry
T19 peptide: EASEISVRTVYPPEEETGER

[23] = biological target: T20, GP5-10 (human, biotin at the N-terminus); assay: as above
T20 construct: GP5 with alanine at position 10 (V10A), already in the entry
T20 peptide: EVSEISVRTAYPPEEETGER

[24] = biological target: T21, GP5-12 (human, biotin at the N-terminus); assay: as above
T21 construct: GP5 with alanine at position 12 (P12A), already in the entry
T21 peptide: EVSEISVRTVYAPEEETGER

[25] = biological target: T22, GP5-9 (human, biotin at the N-terminus); assay: as above
T22 construct: GP5 with alanine at position 9 (T9A), already in the entry
T22 peptide: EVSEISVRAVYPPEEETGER

[26] = biological target: T23, GP5-7 (human, biotin at the N-terminus); assay: as above
T23 construct: GP5 with alanine at position 7 (V7A), already in the entry
T23 peptide: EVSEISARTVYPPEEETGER

[27] = biological target: T24, GP5-14 (human, biotin at the N-terminus); assay: as above
T24 construct: GP5 with alanine at position 14 (E14A), already in the entry
T24 peptide: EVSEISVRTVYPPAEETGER

[28] = biological target: T25, GP5-13 (human, biotin at the N-terminus); assay: as above
T25 construct: GP5 with alanine at position 13 (P13A), already in the entry
T25 peptide: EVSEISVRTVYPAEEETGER

[29] = biological target: T26, GP5-1 (human, biotin at the N-terminus); assay: as above
T26 construct: GP5 with alanine at position 1 (E1A), already in the entry
T26 peptide: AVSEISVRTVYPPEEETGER

[30] = biological target: T27, GP5-3 (human, biotin at the N-terminus); assay: as above
T27 construct: GP5 with alanine at position 3 (S3A), already in the entry
T27 peptide: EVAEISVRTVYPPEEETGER

[31] = biological target: T28, GP5-18 (human, biotin at the N-terminus); assay: as above
T28 construct: GP5 with alanine at position 18 (G18A), already in the entry
T28 peptide: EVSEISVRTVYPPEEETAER

[32] = biological target: T29, GP5-16 (human, biotin at the N-terminus); assay: as above
T29 construct: GP5 with alanine at position 16 (E16A), already in the entry
T29 peptide: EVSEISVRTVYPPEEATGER

[33] = biological target: T30, GP5-5 (human, biotin at the N-terminus); assay: as above
T30 construct: GP5 with alanine at position 5 (I5A), already in the entry
T30 peptide: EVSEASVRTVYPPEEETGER

[34] = biological target: T31, GP5-11 (human, biotin at the N-terminus); assay: as above
T31 construct: GP5 with alanine at position 11 (Y11A), already in the entry
T31 peptide: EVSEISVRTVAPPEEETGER

Binder | binding result [10] | binding result [11] | binding result [12] | binding result [13] | binding result [14] | binding signal (ELISA) [15] | binding signal (ELISA) [16] | binding signal (ELISA) [17] | binding signal (ELISA) [18] | binding signal (ELISA) [19] | binding signal (ELISA) [20] | binding signal (ELISA) [21] | binding signal (ELISA) [22] | binding signal (ELISA) [23] | binding signal (ELISA) [24] | binding signal (ELISA) [25] | binding signal (ELISA) [26] | binding signal (ELISA) [27] | binding signal (ELISA) [28] | binding signal (ELISA) [29] | also measured
B1 |  |  |  |  |  |  |  |  |  |  |  |  |  |  |  |  |  |  |  |  | EC50 (read off the curve) [1]: ~20 µg/mL
B2 |  |  |  |  |  |  |  |  |  |  |  |  |  |  |  |  |  |  |  |  | FACS signal [2]: 2880 relative flourescence units; FACS signal [3]: 294 relative flourescence units; Kd [4]: 5.3 nM; koff [4]: 0.000405 s⁻¹; kon [4]: 76400 M⁻¹ s⁻¹; t½ [4]: 28.5 min; EC50 [5]: 0.402 nM; EC50 [6]: 1.24 nM; EC50 [7]: 1.43 nM; EC50 [8]: 1.45 nM; FACS signal [9]: 1.14 relative flourescence units
B3 | no binding | no binding | no binding | no binding | no binding | 6470 | 6720 | 6540 | 6520 | 6790 | 6870 | 6440 | 6360 | 5910 | 6450 | 6810 | 6700 | 1280 | 6570 | 6210 | binding signal (ELISA) [30]: 6680; binding signal (ELISA) [31]: 6400; binding signal (ELISA) [32]: 6540; binding signal (ELISA) [33]: 6270; binding signal (ELISA) [34]: 1
B4 | no binding | no binding | no binding | no binding | no binding | 6980 | 7250 | 6630 | 6660 | 6700 | 7410 | 7170 | 6700 | 6210 | 6790 | 7270 | 6690 | 2670 | 6960 | 6800 | binding signal (ELISA) [30]: 7370; binding signal (ELISA) [31]: 7150; binding signal (ELISA) [32]: 6680; binding signal (ELISA) [33]: 7400; binding signal (ELISA) [34]: 2
